Bounds are passed on as bounds.

What all share (assay): cell-based or functional assay
Assay [1] deals with enterovirus 71 (EV71) virions (enterovirus 71).
Assay [2] has the same target. This is another data set of the same source.
Assay [3] shares this target. The source holds these as a separate data set.

B1: Recombinant chimeric E18 VL + VH (antibody, V domains shown)
VH: QIQLVQSGPELKKPGETVKISCKASGYTFTRYGMSWVKQAPGKGLKWMGWINTYSGVPTYADDFKGRFAFSLETSASTAYLQINNLKNEDTATYFCARRGYSNYYPMDFWGQGTSVTVSS
VL: DIKMTQSPSSMYASLGERVTITCKASQDIKSYLSWYQQKPWKSPKTLIYYAKNLADGVPSRFSGSGFGQDYSLTISSLESDDTATYYCLQHGESPYTFGSGTKLEIKR
Consider B1, for which, in assay [1], the “IC50 in ATCC cells relative to the parental antibody” value is roughly 2 fold and the “IC50 in NIBSC cells relative to the parental mouse antibody” value was roughly 5 fold. In assay [2], the “Inhibitory concentration 50 (IC50), Vero ATCC” value worked out at 0.585 mg/L; the “Inhibitory concentration 50 (IC50), Vero NIBSC” value stood at 0.966 mg/L; the “end point PRNT50, Vero ATCC” value amounted to 625 ng/mL; the “end point PRNT50, Vero NIBSC” value was 2500 ng/mL.

B2: hVL1 + hVH1 E19 (antibody, V domains shown)
VH: DVQLQESGPGLVKPSQTLSLTCTVSGYSITSGFYLNWIRQHPCKGLEWIGYINYGGSINYNPSLKSRVTISRDTSKNQFSLKLSSVTAADTAVYYCATMPNSWYFDVWGRGTLVTVSS
VL: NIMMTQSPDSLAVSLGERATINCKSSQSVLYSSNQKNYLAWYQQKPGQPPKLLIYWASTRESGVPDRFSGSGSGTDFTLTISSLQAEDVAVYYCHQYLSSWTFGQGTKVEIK
With B2, in assay [3], the “Average IC50” value amounted to 0.0892 mg/L, the “IC50 (#1)” value was determined as 0.0565 mg/L and the “IC50 (#2)” value came out at 0.122 mg/L.

B3: hVL1 + hVH3 E19 (antibody, V domains shown)
VH: EVQLVESGPGLVKPSQTLSLTCTVSGYSITSGFYLNWVRQHPGKKLEWIGYINYGGSINYNPSLKSRVSISRDTSKNQFSLKLTSVTAADTAVYYCATMPNSWYFDVWGTGTLVTVSS
VL: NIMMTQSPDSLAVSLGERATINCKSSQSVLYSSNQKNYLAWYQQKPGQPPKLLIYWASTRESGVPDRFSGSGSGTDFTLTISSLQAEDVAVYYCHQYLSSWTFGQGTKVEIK
For B3, in assay [3], the “Average IC50” value was found to be 0.0896 mg/L, the “IC50 (#1)” value amounted to 0.0965 mg/L and the “IC50 (#2)” value is 0.0826 mg/L.

B4: hVL1 + hVH2 E19 (antibody, V domains shown)
VH: DVQLQESGPGLVKPSQTLSLTCTVSGYSITSGFYLNWIRQHPGKKLEWIGYINYGGSINYNPSLKSRVTISRDTSKNQFSLKLSSVTAADTAVYYCATMPNSWYFDVWGTGTLVTVSS
VL: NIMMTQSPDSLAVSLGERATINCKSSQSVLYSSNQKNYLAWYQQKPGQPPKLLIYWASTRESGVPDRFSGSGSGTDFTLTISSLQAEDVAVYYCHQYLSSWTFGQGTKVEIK
Consider B4, for which, in assay [3], the “Average IC50” value stood at 0.119 mg/L, the “IC50 (#1)” value came out at 0.118 mg/L and the “IC50 (#2)” value is 0.121 mg/L.

B5: Recombinant chimeric E20 VL + VH (antibody, V domains shown)
VH: EVQLVESGGGLVKPGGSLKLSCAASGFTFNIYAMSWVRQTPEKRLEWVATISDGGSYTYYPDNVKGRFTISRDNAKNNLYLQMSHLKSEDTAMYYCVRDRGNYYSRAFPYAYWGQGTLVTVSA
VL: SIVMTQTPKFLPVSAGDRVTMTCKASQSVGNNVAWYQQKSGQSPKLLIYYASNRYTGVPDRFTGSGSGTDFTFTISSVQVEDLAVYFCQQHYSSPPTFGAGTKLELK
Take B5: in assay [2], the “Inhibitory concentration 50 (IC50), Vero ATCC” value was 3.18 mg/L; the “end point PRNT50, Vero ATCC” value came to 5000 ng/mL; the “end point PRNT50, Vero NIBSC” value was greater than 10000 ng/mL.
